Results taken from patent US5674835, “Papillomaviral expression inhibitors” (New England Medical Center Hospitals, Inc.).

Columns and labels:
Details in all cases: tags: 13 N-terminal amino acids of lambda cII; partially purified from E. coli N6405; chain copies: 2
[1] = biological target: T1, BPV-1 E2 C-terminal segment (cII-E2 fusion, pCOE2-1) (Bovine papillomavirus type 1, UniProt P03122 P03122:114-410); assay: competition; single strand did not block immunoprecipitation of dsDNA
T1 chain: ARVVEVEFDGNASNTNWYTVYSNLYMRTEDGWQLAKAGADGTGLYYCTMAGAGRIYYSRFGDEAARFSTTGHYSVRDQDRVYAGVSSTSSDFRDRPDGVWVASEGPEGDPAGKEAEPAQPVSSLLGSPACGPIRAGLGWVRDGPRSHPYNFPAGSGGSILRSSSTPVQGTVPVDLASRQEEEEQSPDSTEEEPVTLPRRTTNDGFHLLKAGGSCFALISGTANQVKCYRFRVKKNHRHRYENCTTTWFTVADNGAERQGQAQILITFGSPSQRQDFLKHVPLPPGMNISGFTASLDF

[2] = biological target: T1, BPV-1 E2 C-terminal segment (cII-E2 …); assay: competition; about 1000 times more effective competitor than N2; DNA immunoprecipitation
[3] = biological target: T1, BPV-1 E2 C-terminal segment (cII-E2 …); assay: competition; relative to N1; no consensus site

B1: single-stranded oligonucleotide without E2 site (ssDNA)
DNA: GCGCATAATCAGCTTAATTGGTG
binding result [1]: no binding

B2: 23 bp URR fragment with E2 site IIIb (dsDNA)
DNA 1: CGTCAAACCGTCTTCGGTGCTC
DNA 2: GAGCACCGAAGACGGTTTGACG
binding signal [2]: ~1000 fold

B3: 23 bp fragment without E2 site (dsDNA)
DNA 1: GCGCATAATCAGCTTAATTGGTG
DNA 2: CACCAATTAAGCTGATTATGCGC
binding signal [3]: ~0.001 fold

B4: single-stranded oligonucleotide with site IIIb (ssDNA)
DNA: CGTCAAACCGTCTTCGGTGCTC
binding result [1]: no binding
